# Laboratory results reported in publication PMC5499675 (2017).
# B1: Expanded TCR clonotype from subject T1D2 (Sequences 1 and 2) (TCR)
# alpha TRAV29 TRAJ40 CDR3: CAATRTSGTYKYIF
# beta TRBV6-6 TRBJ2-3 CDR3: CASSPWGAGGTDTQYF
# B2: Expanded TCR clonotype from subject T1D4 (Sequences 3 and 4) (TCR)
# alpha TRAV2 TRAJ15 CDR3: CAVEDLNQAGTALIF
# beta TRBV5-1 TRBJ2-1 CDR3: CASSLALGQGNQQFF
# Experiments:
# [1] = target: T1, influenza hemagglutinin peptide on HLA-DRA*01:01 / HLA-DRB1*04:01 (human); assay: multimer staining
# T1 peptide: PRYVKQNTLKLAT
# [2] = target: T2, IGRP peptide on HLA-DRA*01:01 / HLA-DRB1*04:01 (human); assay: multimer staining
# T2 peptide: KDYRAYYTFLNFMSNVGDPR
# [3] = target: IGRP peptide on HLA-DRA*01:01 / HLA-DRB1*04:01 (human); assay: multimer staining; remark: listed apart in the source
# [4] = target: T3, IGRP peptide on HLA-DRA*01:01 / HLA-DRB1*04:01 (human); assay: multimer staining; remark: listed apart in the source
# [5] = target: T2, IGRP peptide on HLA-DRA*01:01 / …; assay: proliferation
# [6] = target: T3, IGRP peptide on HLA-DRA*01:01 / …; assay: proliferation; remark: listed apart in the source
Binder,binding result [1],binding result [2],binding result [3],binding result [4],binding result [5],binding result [6]
B1,no recognition,no recognition,no recognition,recognises,–,–
B2,no recognition,–,recognises,–,no recognition,no recognition
